Data from the supplement of paper PMC10724198.
± gives the standard deviation of the averaged measurements.

system: Saccharomyces cerevisiae; experiment: protein stability index of tFT-peptide fusion (C-terminal peptide) (PSI (0-1 scale)); higher = more stable (slower turnover); settings: genetic background: wild type; temperature: 30 C
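Also: PSI is a weighted mean of sequencing reads over stability bins, variants kept only with over 10 reads, mCherry proximal and sfGFP distal, peptide attached via GGGS linker.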

Q: Which protein stability index does the source give for VEVGAWMVGCSE here?
A: Its protein stability index is 0.6113 ± 0.0012.

Q: For VEWCARGRVRRA, which protein stability index is on record?
A: Its protein stability index is 0.757 ± 0.045.

Q: For VEWLQLERDPLV, which protein stability index is on record?
A: Its protein stability index is 0.741 ± 0.033.

Q: Which protein stability index does the source give for VEYGRLPRGEEG here?
A: Its protein stability index is 0.645 ± 0.13.

Q: With VFADHPSMHILS as the sequence, how does the protein stability index read?
A: The protein stability index was 0.72 ± 0.021.

Q: How did the protein stability index turn out when VFAGGCRLYCFR was run?
A: The protein stability index was 0.624 ± 0.063.

Q: For VFALSSVAIRRS, which protein stability index is on record?
A: The protein stability index was 0.64 ± 0.032.

Q: For VFAWFSGGARLT, which protein stability index is on record?
A: Its protein stability index is 0.717 ± 0.0076.

Q: VFCFGVRSVFLR was tested. Which protein stability index did it give?
A: Its protein stability index is 0.54 ± 0.053.

Q: Which protein stability index does the source give for VFCLGTRSWGLF here?
A: Its protein stability index is 0.6997 ± 0.0042.

Q: For VFFCALCRLWLG, which protein stability index is on record?
A: The protein stability index was 0.5 ± 0.029.

Q: VFGGSLICVFRV was tested. Which protein stability index did it give?
A: The protein stability index was 0.567 ± 0.025.

Q: How did the protein stability index turn out when VFLASFLVCPIS was run?
A: Its protein stability index is 0.662 ± 0.057.

Q: VFLSLLYWSPIG was tested. Which protein stability index did it give?
A: Its protein stability index is 0.643 ± 0.038.

Q: VFLTLDVFPSSP was tested. Which protein stability index did it give?
A: Its protein stability index is 0.647 ± 0.17.

Q: VFPPPLPVRRCP was tested. Which protein stability index did it give?
A: Its protein stability index is 0.6551 ± 0.0031.

Q: How did the protein stability index turn out when VFPRVFGFGVCI was run?
A: The protein stability index was 0.716 ± 0.054.

Q: For VFQRFLLFTISP, which protein stability index is on record?
A: The protein stability index was 0.61 ± 0.014.

Q: For VFRSGGNQDIKV, which protein stability index is on record?
A: Its protein stability index is 0.648 ± 0.015.

Q: With VFSAVIFFDCVQ as the sequence, how does the protein stability index read?
A: The protein stability index was 0.629 ± 0.014.

Q: Which protein stability index does the source give for VFSGGTVRWVGG here?
A: The protein stability index was 0.702 ± 0.023.

Q: VFWVFDGFEGFI was tested. Which protein stability index did it give?
A: The protein stability index was 0.825 ± 0.022.

Q: Which protein stability index does the source give for VGAGGAWSGCGP here?
A: Its protein stability index is 0.675 ± 0.046.

Q: For VGAVRVAVGVGG, which protein stability index is on record?
A: The protein stability index was 0.566 ± 0.0096.

Q: VGAWGCGMWVVG was tested. Which protein stability index did it give?
A: The protein stability index was 0.645 ± 0.024.

Q: Which protein stability index does the source give for VGCWATGVGGPS here?
A: Its protein stability index is 0.706 ± 0.038.

Q: For VGDGLGGGGQGG, which protein stability index is on record?
A: Its protein stability index is 0.664 ± 0.056.

Q: With VGDGQVWGGQGG as the sequence, how does the protein stability index read?
A: Its protein stability index is 0.669 ± 0.063.

Q: How did the protein stability index turn out when VGEGLGWGGQGG was run?
A: The protein stability index was 0.712 ± 0.062.

Q: How did the protein stability index turn out when VGERVSRRIQTR was run?
A: Its protein stability index is 0.699 ± 0.052.

Q: Which protein stability index does the source give for VGESGEGVVMGE here?
A: The protein stability index was 0.677 ± 0.08.

Q: For VGFVYLTSAQVW, which protein stability index is on record?
A: Its protein stability index is 0.527 ± 0.012.

Q: Which protein stability index does the source give for VGGAAVVAGGGV here?
A: The protein stability index was 0.695 ± 0.031.

Q: Which protein stability index does the source give for VGGACGLSGGLV here?
A: Its protein stability index is 0.652 ± 0.062.

Q: How did the protein stability index turn out when VGGAVGAGGGGG was run?
A: Its protein stability index is 0.649 ± 0.032.

Q: With VGGAVVWVGLVR as the sequence, how does the protein stability index read?
A: The protein stability index was 0.55 ± 0.031.

Q: With VGGEGGLGVRPR as the sequence, how does the protein stability index read?
A: Its protein stability index is 0.662 ± 0.033.

Q: How did the protein stability index turn out when VGGEGVGVGGEV was run?
A: The protein stability index was 0.616 ± 0.018.

Q: With VGGFVRGRVWCS as the sequence, how does the protein stability index read?
A: The protein stability index was 0.696 ± 0.012.

Q: VGGGFSSVVWLW was tested. Which protein stability index did it give?
A: The protein stability index was 0.658 ± 0.043.

Q: With VGGGGGVSLGGR as the sequence, how does the protein stability index read?
A: The protein stability index was 0.655 ± 0.087.

Q: VGGLAFSTSSIW was tested. Which protein stability index did it give?
A: Its protein stability index is 0.809 ± 0.11.

Q: For VGGMGAEGRGGK, which protein stability index is on record?
A: The protein stability index was 0.721 ± 0.009.

Q: For VGGRGLVWVWGG, which protein stability index is on record?
A: The protein stability index was 0.631 ± 0.059.

Q: Which protein stability index does the source give for VGGSERVWVKSL here?
A: Its protein stability index is 0.537 ± 0.043.

Q: For VGGVWVDVMGFC, which protein stability index is on record?
A: The protein stability index was 0.793 ± 0.16.

Q: How did the protein stability index turn out when VGILHCELVDVS was run?
A: Its protein stability index is 0.735 ± 0.17.

Q: VGIPKEADKGGF was tested. Which protein stability index did it give?
A: Its protein stability index is 0.704 ± 0.035.

Q: With VGLGVLWVMGKV as the sequence, how does the protein stability index read?
A: Its protein stability index is 0.667 ± 0.082.

Q: For VGLTNSHTHVRR, which protein stability index is on record?
A: The protein stability index was 0.767 ± 0.019.

Q: With VGNSLRCRGGWR as the sequence, how does the protein stability index read?
A: Its protein stability index is 0.628 ± 0.069.

Q: VGPFSSSRIGTS was tested. Which protein stability index did it give?
A: The protein stability index was 0.6003 ± 0.0019.

Q: VGPGVLVLGVGA was tested. Which protein stability index did it give?
A: Its protein stability index is 0.68 ± 0.035.

Q: Which protein stability index does the source give for VGPRFAYLDVAA here?
A: Its protein stability index is 0.5644 ± 0.0031.

Q: For VGPSGLIRCSFC, which protein stability index is on record?
A: Its protein stability index is 0.712 ± 0.029.

Q: VGRAGMPGSAES was tested. Which protein stability index did it give?
A: Its protein stability index is 0.66 ± 0.022.

Q: For VGRARRKGGGVG, which protein stability index is on record?
A: Its protein stability index is 0.6384 ± 0.0024.

Q: VGRGWSSGGGGD was tested. Which protein stability index did it give?
A: Its protein stability index is 0.682 ± 0.023.

Q: With VGRSRNGAQSNR as the sequence, how does the protein stability index read?
A: The protein stability index was 0.65 ± 0.015.

Q: For VGSAENQHTGRM, which protein stability index is on record?
A: Its protein stability index is 0.678 ± 0.018.

Q: With VGSSRWRHVGRR as the sequence, how does the protein stability index read?
A: Its protein stability index is 0.6742 ± 0.0063.

Q: For VGSVWGDCLGYL, which protein stability index is on record?
A: Its protein stability index is 0.701 ± 0.049.

Q: VGTPPSEVGVLA was tested. Which protein stability index did it give?
A: Its protein stability index is 0.628 ± 0.035.

Q: VGVLLGPVWFSV was tested. Which protein stability index did it give?
A: Its protein stability index is 0.684 ± 0.042.

Q: With VGVPAGQRRLAS as the sequence, how does the protein stability index read?
A: The protein stability index was 0.718 ± 0.089.

Q: Which protein stability index does the source give for VGVRCCPRLRFG here?
A: Its protein stability index is 0.695 ± 0.061.

Q: Which protein stability index does the source give for VGVSEVGRGWAT here?
A: The protein stability index was 0.71 ± 0.062.

Q: VGVSFSFGSIFL was tested. Which protein stability index did it give?
A: The protein stability index was 0.687 ± 0.022.

Q: VGVWAGVVLLGG was tested. Which protein stability index did it give?
A: Its protein stability index is 0.825 ± 0.18.

Q: For VGWQGRWWLWGG, which protein stability index is on record?
A: Its protein stability index is 0.568 ± 0.03.

Q: How did the protein stability index turn out when VGWSWTSWTKGD was run?
A: Its protein stability index is 0.661 ± 0.021.

Q: VHAGVLTMADPT was tested. Which protein stability index did it give?
A: Its protein stability index is 0.653 ± 0.05.

Q: With VHIVTLGGVLSF as the sequence, how does the protein stability index read?
A: The protein stability index was 0.608 ± 0.0074.

Q: For VHRRRVSVGGGV, which protein stability index is on record?
A: Its protein stability index is 0.69044 ± 0.00032.

Q: How did the protein stability index turn out when VIACTFLSCSFS was run?
A: Its protein stability index is 0.531 ± 0.02.

Q: VIGEWWPVSGQH was tested. Which protein stability index did it give?
A: Its protein stability index is 0.718 ± 0.014.

Q: For VIISDPNKDTRL, which protein stability index is on record?
A: The protein stability index was 0.645 ± 0.066.

Q: Which protein stability index does the source give for VILTAISPAFSV here?
A: The protein stability index was 0.647 ± 0.013.

Q: VIQCIGANGAII was tested. Which protein stability index did it give?
A: The protein stability index was 0.645 ± 0.052.

Q: With VIRQVKFDRKCS as the sequence, how does the protein stability index read?
A: The protein stability index was 0.681 ± 0.068.

Q: For VISKIAIKAKER, which protein stability index is on record?
A: The protein stability index was 0.665 ± 0.047.

Q: How did the protein stability index turn out when VKIYPSHGKVRD was run?
A: Its protein stability index is 0.6901 ± 0.00096.

Q: VKKVSSVGGREG was tested. Which protein stability index did it give?
A: The protein stability index was 0.643 ± 0.1.

Q: Which protein stability index does the source give for VKLEEKNTINKV here?
A: Its protein stability index is 0.668 ± 0.1.

Q: Which protein stability index does the source give for VKSGSTALRVNS here?
A: Its protein stability index is 0.607 ± 0.051.

Q: Which protein stability index does the source give for VKSQRISVMIKK here?
A: Its protein stability index is 0.689 ± 0.022.

Q: VLCCFLFGFLLV was tested. Which protein stability index did it give?
A: Its protein stability index is 0.576 ± 0.011.

Q: For VLDFRGELGLLG, which protein stability index is on record?
A: Its protein stability index is 0.699 ± 0.025.

Q: With VLEVLKTGKKIM as the sequence, how does the protein stability index read?
A: Its protein stability index is 0.692 ± 0.032.

Q: For VLGGRWDGVGGV, which protein stability index is on record?
A: Its protein stability index is 0.661 ± 0.064.

Q: For VLGLGVVACWAV, which protein stability index is on record?
A: Its protein stability index is 0.569 ± 0.013.

Q: VLGRRGLVWKRV was tested. Which protein stability index did it give?
A: The protein stability index was 0.5993 ± 0.0033.

Q: How did the protein stability index turn out when VLHFIFLCRCPV was run?
A: Its protein stability index is 0.497 ± 0.011.

Q: With VLICGLNYLSLC as the sequence, how does the protein stability index read?
A: Its protein stability index is 0.64 ± 0.022.

Q: With VLIEWKGSREKY as the sequence, how does the protein stability index read?
A: The protein stability index was 0.824 ± 0.21.

Q: For VLIRRLPFTSYL, which protein stability index is on record?
A: Its protein stability index is 0.6365 ± 0.0034.

Q: VLKGIVKQTRRG was tested. Which protein stability index did it give?
A: Its protein stability index is 0.685 ± 0.058.

Q: For VLKRYILRNEKD, which protein stability index is on record?
A: The protein stability index was 0.697 ± 0.027.

Q: With VLLARVRRSSDS as the sequence, how does the protein stability index read?
A: The protein stability index was 0.649 ± 0.093.

Q: How did the protein stability index turn out when VLLGFSDYLRVT was run?
A: The protein stability index was 0.698 ± 0.079.

Q: Which protein stability index does the source give for VLLGTVRCCFLG here?
A: Its protein stability index is 0.556 ± 0.022.
